This passage reports purified protein obtained per ml of resin (mg per ml of resin), sample molecules per ligand and binding capacity (mg PEP17081 per ml resin) results from patent US10011641B2.

Non-standard residues stand in square brackets, D forms with d. No end group written: not given here. Z06677 = not defined here

The target in experiment [1] is PEP06548 (Artificial sequence). Description: affinity purification on anti-ABD agarose with about 2.3 mg ligand per ml resin, absorbance measurement.
Experiment [2] concerns the target PEP17081 (Artificial sequence). Description: affinity purification on anti-ABD agarose, spectrophotometric analysis of the eluted pool.

B1: (Z06677)2-Cys (designed binder)
chain: GSSLQ[Z06677][Z06677]VDC
modifications: reading uncertain; also: printed as GSSLQ-[Z06677][Z06677]-VDC
B1 returned a purified protein obtained per ml of resin (mg per ml of resin) in experiment [1] of 3.7. Besides, the sample molecules per ligand in experiment [1] (scale: PEP06548 molecule per) is 1. Also, in experiment [2], the binding capacity (mg PEP17081 per ml resin) came to 13.
